B1: SNX3 (parent)
chain: FLRQLPFRGDDGIFDDNFIEERKQ
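Further: lentivirally expressed fusions sorted by FACS into six bins by GFP to DsRed ratio, PSI derived from sequencing read proportions per bin multiplied by bin number.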

In the data set the parent is B1. The data set can be described thus: protein stability index of a GFP-peptide fusion (GPS, HEK-293T) (PSI 1-6); higher = more stable. Conditions: c terminus: a fixed tail appended.
In the case of FLYQLPFRGDDGIFDDNFIEERKQ [R3Y], the protein stability index was found to be 2.28.

As to FLRQLPFRGDDGIDDDNFIEERKQ [F14D], the protein stability index is 4.79.

On to FLRQLPFRGDDGICDDNFIEERKQ [F14C], for which the protein stability index amounted to 3.06.

For FLRQLPFRGDDGIADDNFIEERKQ [F14A], the protein stability index stood at 4.26.

As for FLRILPFRGDDGIFDDNFIEERKQ [Q4I], the protein stability index was found to be 2.55.

Consider FLRVLPFRGDDGIFDDNFIEERKQ [Q4V], for which the protein stability index came out at 3.07.

On to FLRCLPFRGDDGIFDDNFIEERKQ [Q4C], for which the protein stability index was 2.83.

Consider FLRWLPFRGDDGIFDDNFIEERKQ [Q4W], for which the protein stability index stood at 2.7.

FLRGLPFRGDDGIFDDNFIEERKQ [Q4G]: the protein stability index came to 4.33.

As for FLRALPFRGDDGIFDDNFIEERKQ [Q4A], the protein stability index is 3.78.

For the variant FLRNLPFRGDDGIFDDNFIEERKQ [Q4N], the protein stability index stood at 2.13.

In the case of FLRYLPFRGDDGIFDDNFIEERKQ [Q4Y], the protein stability index worked out at 1.48.

Consider FLRTLPFRGDDGIFDDNFIEERKQ [Q4T], for which the protein stability index was 3.08.

On to FLRMLPFRGDDGIFDDNFIEERKQ [Q4M], for which the protein stability index stood at 3.22.

Turning to FLRHLPFRGDDGIFDDNFIEERKQ [Q4H], the protein stability index was 2.94.

For the variant FLRFLPFRGDDGIFDDNFIEERKQ [Q4F], the protein stability index stood at 2.44.

With FLRSLPFRGDDGIFDDNFIEERKQ [Q4S], the protein stability index worked out at 2.95.

With FLRDLPFRGDDGIFDDNFIEERKQ [Q4D], the protein stability index was found to be 4.26.

FLRELPFRGDDGIFDDNFIEERKQ [Q4E]: the protein stability index worked out at 3.85.

With FLRKLPFRGDDGIFDDNFIEERKQ [Q4K], the protein stability index worked out at 2.67.

Turning to FLRLLPFRGDDGIFDDNFIEERKQ [Q4L], the protein stability index is 1.91.

Consider FLRPLPFRGDDGIFDDNFIEERKQ [Q4P], for which the protein stability index turned out to be 1.95.

FLRRLPFRGDDGIFDDNFIEERKQ [Q4R]: the protein stability index came out at 2.27.

For FLRQKPFRGDDGIFDDNFIEERKQ [L5K], the protein stability index stood at 4.01.

With FLRQIPFRGDDGIFDDNFIEERKQ [L5I], the protein stability index was found to be 2.18.

On to FLRQNPFRGDDGIFDDNFIEERKQ [L5N], for which the protein stability index stood at 3.78.

Regarding FLRQSPFRGDDGIFDDNFIEERKQ [L5S], the protein stability index worked out at 4.01.

With FLRQEPFRGDDGIFDDNFIEERKQ [L5E], the protein stability index was found to be 4.62.

On to FLRQTPFRGDDGIFDDNFIEERKQ [L5T], for which the protein stability index is 3.77.

FLRQRPFRGDDGIFDDNFIEERKQ [L5R]: the protein stability index came to 3.99.

FLRQDPFRGDDGIFDDNFIEERKQ [L5D]: the protein stability index was determined as 3.71.

In the case of FLRQAPFRGDDGIFDDNFIEERKQ [L5A], the protein stability index came to 3.1.

On to FLRQYPFRGDDGIFDDNFIEERKQ [L5Y], for which the protein stability index was determined as 2.78.

With FLRQVPFRGDDGIFDDNFIEERKQ [L5V], the protein stability index came to 4.15.

In the case of FLRQMPFRGDDGIFDDNFIEERKQ [L5M], the protein stability index came out at 3.39.

Turning to FLRQWPFRGDDGIFDDNFIEERKQ [L5W], the protein stability index was 1.96.

Regarding FLRQPPFRGDDGIFDDNFIEERKQ [L5P], the protein stability index amounted to 3.78.

For FLRQQPFRGDDGIFDDNFIEERKQ [L5Q], the protein stability index came to 3.72.

On to FLRQGPFRGDDGIFDDNFIEERKQ [L5G], for which the protein stability index came out at 3.74.

In the case of FLRQHPFRGDDGIFDDNFIEERKQ [L5H], the protein stability index was 3.22.

As for FLRQFPFRGDDGIFDDNFIEERKQ [L5F], the protein stability index came out at 3.36.

In the case of FLRQLPFPGDDGIFDDNFIEERKQ [R8P], the protein stability index was 3.75.

On to FLRQLPFWGDDGIFDDNFIEERKQ [R8W], for which the protein stability index came to 3.08.

On to FLRQLPFGGDDGIFDDNFIEERKQ [R8G], for which the protein stability index is 3.79.

Take FLRQLPFYGDDGIFDDNFIEERKQ [R8Y]: the protein stability index was 3.96.

Turning to FLRQLPFHGDDGIFDDNFIEERKQ [R8H], the protein stability index was determined as 3.96.

For FLRQLPFSGDDGIFDDNFIEERKQ [R8S], the protein stability index worked out at 3.61.

FLRQLPFQGDDGIFDDNFIEERKQ [R8Q]: the protein stability index was determined as 4.22.

For FLRQLPFAGDDGIFDDNFIEERKQ [R8A], the protein stability index is 3.15.

Consider FLRQLPFLGDDGIFDDNFIEERKQ [R8L], for which the protein stability index came to 2.95.

With FLRQLPFTGDDGIFDDNFIEERKQ [R8T], the protein stability index is 3.97.

For the variant FLRQLPFEGDDGIFDDNFIEERKQ [R8E], the protein stability index was found to be 3.94.

For FLRQLPFIGDDGIFDDNFIEERKQ [R8I], the protein stability index came to 2.67.

Consider FLRQLPFKGDDGIFDDNFIEERKQ [R8K], for which the protein stability index was 3.69.

Turning to FLRQLPFNGDDGIFDDNFIEERKQ [R8N], the protein stability index worked out at 3.68.

For the variant FLRQLPFVGDDGIFDDNFIEERKQ [R8V], the protein stability index amounted to 3.56.

Regarding FLRQLPFCGDDGIFDDNFIEERKQ [R8C], the protein stability index turned out to be 2.33.

With FLRQLPFDGDDGIFDDNFIEERKQ [R8D], the protein stability index came out at 2.9.

Turning to FLRQLPFMGDDGIFDDNFIEERKQ [R8M], the protein stability index worked out at 3.1.

Regarding FLRQLPFFGDDGIFDDNFIEERKQ [R8F], the protein stability index amounted to 2.44.

With FLRQLPRRGDDGIFDDNFIEERKQ [F7R], the protein stability index was 3.58.

In the case of FLRQLPPRGDDGIFDDNFIEERKQ [F7P], the protein stability index was 2.62.

Take FLRQLPWRGDDGIFDDNFIEERKQ [F7W]: the protein stability index turned out to be 3.05.

Take FLRQLPDRGDDGIFDDNFIEERKQ [F7D]: the protein stability index was determined as 4.03.

For FLRQLPYRGDDGIFDDNFIEERKQ [F7Y], the protein stability index worked out at 3.07.

Regarding FLRQLPQRGDDGIFDDNFIEERKQ [F7Q], the protein stability index came to 3.59.

Consider FLRQLPSRGDDGIFDDNFIEERKQ [F7S], for which the protein stability index is 3.76.

As for FLRQLPHRGDDGIFDDNFIEERKQ [F7H], the protein stability index stood at 3.52.

Regarding FLRQLPNRGDDGIFDDNFIEERKQ [F7N], the protein stability index came out at 3.87.

As to FLRQLPCRGDDGIFDDNFIEERKQ [F7C], the protein stability index was 3.16.

In the case of FLRQLPVRGDDGIFDDNFIEERKQ [F7V], the protein stability index is 3.83.

Consider FLRQLPERGDDGIFDDNFIEERKQ [F7E], for which the protein stability index is 4.77.

Turning to FLRQLPKRGDDGIFDDNFIEERKQ [F7K], the protein stability index stood at 4.

With FLRQLPTRGDDGIFDDNFIEERKQ [F7T], the protein stability index was 4.35.

On to FLRQLPLRGDDGIFDDNFIEERKQ [F7L], for which the protein stability index amounted to 3.23.

As to FLRQLPMRGDDGIFDDNFIEERKQ [F7M], the protein stability index is 3.32.

Take FLRQLPIRGDDGIFDDNFIEERKQ [F7I]: the protein stability index was 2.83.

On to FLRQLPGRGDDGIFDDNFIEERKQ [F7G], for which the protein stability index was found to be 3.5.

In the case of FLRQLPFRHDDGIFDDNFIEERKQ [G9H], the protein stability index was 3.08.

Turning to FLRQLPFRTDDGIFDDNFIEERKQ [G9T], the protein stability index was 2.97.

FLRQLPFRIDDGIFDDNFIEERKQ [G9I]: the protein stability index was determined as 2.9.

Turning to FLRQLPFRSDDGIFDDNFIEERKQ [G9S], the protein stability index is 3.41.

FLRQLPFRCDDGIFDDNFIEERKQ [G9C]: the protein stability index turned out to be 2.79.

For the variant FLRQLPFREDDGIFDDNFIEERKQ [G9E], the protein stability index turned out to be 3.17.

For FLRQLPFRPDDGIFDDNFIEERKQ [G9P], the protein stability index worked out at 3.06.

Regarding FLRQLPFRNDDGIFDDNFIEERKQ [G9N], the protein stability index came out at 2.72.

On to FLRQLPFRVDDGIFDDNFIEERKQ [G9V], for which the protein stability index amounted to 3.08.

Consider FLRQLPFRKDDGIFDDNFIEERKQ [G9K], for which the protein stability index turned out to be 3.39.

Take FLRQLPFRLDDGIFDDNFIEERKQ [G9L]: the protein stability index turned out to be 2.99.

Take FLRQLPFRDDDGIFDDNFIEERKQ [G9D]: the protein stability index came to 3.04.

Consider FLRQLPFRRDDGIFDDNFIEERKQ [G9R], for which the protein stability index came to 3.27.

As for FLRQLPFRWDDGIFDDNFIEERKQ [G9W], the protein stability index stood at 3.02.

In the case of FLRQLPFRFDDGIFDDNFIEERKQ [G9F], the protein stability index is 3.36.

Consider FLRQLPFRQDDGIFDDNFIEERKQ [G9Q], for which the protein stability index was determined as 2.98.
